# Numbered stars: 1 amine (or outer) side, 2 acyl side, 3 side chain; on linkers, the order of the positions; unused ones are H or OH. Bridge positions count the residues as written; N and C are the ends. * marks the point of attachment. C20 diacid = O=C(O)CCCCCCCCCCCCCCCCCCC(=O)*; γGlu = O=C(O)[C@H](CCC(=O)[*:2])N[*:1]
# T1: human amylin receptor (amylin 3(a) receptor: human calcitonin receptor with RAMP-3) (human, UniProt P30988 25-474; O60896 24-148)
# T1 sequence (looked up) 1: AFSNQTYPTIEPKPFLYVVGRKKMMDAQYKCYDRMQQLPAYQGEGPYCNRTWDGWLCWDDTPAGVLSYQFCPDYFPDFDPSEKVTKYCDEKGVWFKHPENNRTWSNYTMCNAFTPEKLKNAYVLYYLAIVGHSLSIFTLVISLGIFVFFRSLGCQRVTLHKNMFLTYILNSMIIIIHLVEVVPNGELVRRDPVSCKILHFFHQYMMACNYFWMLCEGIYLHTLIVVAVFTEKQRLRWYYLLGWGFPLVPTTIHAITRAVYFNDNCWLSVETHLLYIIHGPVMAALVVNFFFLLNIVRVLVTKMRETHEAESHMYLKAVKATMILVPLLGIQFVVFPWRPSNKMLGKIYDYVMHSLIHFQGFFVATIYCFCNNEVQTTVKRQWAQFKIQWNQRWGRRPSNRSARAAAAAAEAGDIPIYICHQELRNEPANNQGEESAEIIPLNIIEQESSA
# T1 sequence (looked up) 2: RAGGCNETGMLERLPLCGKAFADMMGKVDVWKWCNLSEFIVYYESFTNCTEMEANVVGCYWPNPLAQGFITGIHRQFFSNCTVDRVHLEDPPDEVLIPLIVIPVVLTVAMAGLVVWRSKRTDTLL
# T2: human calcitonin receptor (human, UniProt P30988 25-474)
# T2 sequence (looked up): T1 sequence (looked up) 1
# B1: N^α1-[(4S)-4-carboxy-4-(19-carboxynonadecanoylamino)butanoyl]-[Arg17,Pro21,Pro27,Pro34,Glu35]-h-amylin (peptide)
# peptide: {C20 diacid-γGlu}-KCNTATCATQRLANFLRHSSPNFGAIPSSTNVGPETY-NH2
# modifications: disulfide 2-7
# SMILES: CC[C@H](C)[C@H](NC(=O)[C@H](C)NC(=O)CNC(=O)[C@H](Cc1ccccc1)NC(=O)[C@H](CC(N)=O)NC(=O)[C@@H]1CCCN1C(=O)[C@H](CO)NC(=O)[C@H](CO)NC(=O)[C@H](Cc1c[nH]cn1)NC(=O)[C@H](CCCNC(=N)N)NC(=O)[C@H](CC(C)C)NC(=O)[C@H](Cc1ccccc1)NC(=O)[C@H](CC(N)=O)NC(=O)[C@H](C)NC(=O)[C@H](CC(C)C)NC(=O)[C@H](CCCNC(=N)N)NC(=O)[C@H](CCC(N)=O)NC(=O)[C@@H](NC(=O)[C@H](C)NC(=O)[C@@H]1CSSC[C@H](NC(=O)[C@H](CCCCN)NC(=O)CC[C@H](NC(=O)CCCCCCCCCCCCCCCCCCC(=O)O)C(=O)O)C(=O)N[C@@H](CC(N)=O)C(=O)N[C@@H]([C@@H](C)O)C(=O)N[C@@H](C)C(=O)N[C@@H]([C@@H](C)O)C(=O)N1)[C@@H](C)O)C(=O)N1CCC[C@H]1C(=O)N[C@@H](CO)C(=O)N[C@@H](CO)C(=O)N[C@H](C(=O)N[C@@H](CC(N)=O)C(=O)N[C@H](C(=O)NCC(=O)N1CCC[C@H]1C(=O)N[C@@H](CCC(=O)O)C(=O)N[C@H](C(=O)N[C@@H](Cc1ccc(O)cc1)C(N)=O)[C@@H](C)O)C(C)C)[C@@H](C)O
# notes: also called compound 29
# B2: N^α1-[(4S)-4-carboxy-4-(19-carboxynonadecanoylamino)butanoyl]-[Asp14,Arg17,Pro21,Pro27,Pro37]-h-amylin (peptide)
# peptide: {C20 diacid-γGlu}-KCNTATCATQRLADFLRHSSPNFGAIPSSTNVGSNTP-NH2
# modifications: disulfide 2-7
# SMILES: CC[C@H](C)[C@H](NC(=O)[C@H](C)NC(=O)CNC(=O)[C@H](Cc1ccccc1)NC(=O)[C@H](CC(N)=O)NC(=O)[C@@H]1CCCN1C(=O)[C@H](CO)NC(=O)[C@H](CO)NC(=O)[C@H](Cc1c[nH]cn1)NC(=O)[C@H](CCCNC(=N)N)NC(=O)[C@H](CC(C)C)NC(=O)[C@H](Cc1ccccc1)NC(=O)[C@H](CC(=O)O)NC(=O)[C@H](C)NC(=O)[C@H](CC(C)C)NC(=O)[C@H](CCCNC(=N)N)NC(=O)[C@H](CCC(N)=O)NC(=O)[C@@H](NC(=O)[C@H](C)NC(=O)[C@@H]1CSSC[C@H](NC(=O)[C@H](CCCCN)NC(=O)CC[C@H](NC(=O)CCCCCCCCCCCCCCCCCCC(=O)O)C(=O)O)C(=O)N[C@@H](CC(N)=O)C(=O)N[C@@H]([C@@H](C)O)C(=O)N[C@@H](C)C(=O)N[C@@H]([C@@H](C)O)C(=O)N1)[C@@H](C)O)C(=O)N1CCC[C@H]1C(=O)N[C@@H](CO)C(=O)N[C@@H](CO)C(=O)N[C@H](C(=O)N[C@@H](CC(N)=O)C(=O)N[C@H](C(=O)NCC(=O)N[C@@H](CO)C(=O)N[C@@H](CC(N)=O)C(=O)N[C@H](C(=O)N1CCC[C@H]1C(N)=O)[C@@H](C)O)C(C)C)[C@@H](C)O
# notes: also called compound 10
# B3: N^α1-[(4S)-4-carboxy-4-(19-carboxynonadecanoylamino)butanoyl]-[Glu14,Arg17,Pro21,Pro27,Arg35]-h-amylin (peptide)
# peptide: {C20 diacid-γGlu}-KCNTATCATQRLAEFLRHSSPNFGAIPSSTNVGSRTY-NH2
# modifications: disulfide 2-7
# SMILES: CC[C@H](C)[C@H](NC(=O)[C@H](C)NC(=O)CNC(=O)[C@H](Cc1ccccc1)NC(=O)[C@H](CC(N)=O)NC(=O)[C@@H]1CCCN1C(=O)[C@H](CO)NC(=O)[C@H](CO)NC(=O)[C@H](Cc1c[nH]cn1)NC(=O)[C@H](CCCNC(=N)N)NC(=O)[C@H](CC(C)C)NC(=O)[C@H](Cc1ccccc1)NC(=O)[C@H](CCC(=O)O)NC(=O)[C@H](C)NC(=O)[C@H](CC(C)C)NC(=O)[C@H](CCCNC(=N)N)NC(=O)[C@H](CCC(N)=O)NC(=O)[C@@H](NC(=O)[C@H](C)NC(=O)[C@@H]1CSSC[C@H](NC(=O)[C@H](CCCCN)NC(=O)CC[C@H](NC(=O)CCCCCCCCCCCCCCCCCCC(=O)O)C(=O)O)C(=O)N[C@@H](CC(N)=O)C(=O)N[C@@H]([C@@H](C)O)C(=O)N[C@@H](C)C(=O)N[C@@H]([C@@H](C)O)C(=O)N1)[C@@H](C)O)C(=O)N1CCC[C@H]1C(=O)N[C@@H](CO)C(=O)N[C@@H](CO)C(=O)N[C@H](C(=O)N[C@@H](CC(N)=O)C(=O)N[C@H](C(=O)NCC(=O)N[C@@H](CO)C(=O)N[C@@H](CCCNC(=N)N)C(=O)N[C@H](C(=O)N[C@@H](Cc1ccc(O)cc1)C(N)=O)[C@@H](C)O)C(C)C)[C@@H](C)O
# notes: also called compound 16
# B4: N^α1-[(4S)-4-carboxy-4-(19-carboxynonadecanoylamino)butanoyl]-[Glu14,Arg17,Pro21,Pro27,Asp35,Pro37]-h-amylin (peptide)
# peptide: {C20 diacid-γGlu}-KCNTATCATQRLAEFLRHSSPNFGAIPSSTNVGSDTP-NH2
# modifications: disulfide 2-7
# SMILES: CC[C@H](C)[C@H](NC(=O)[C@H](C)NC(=O)CNC(=O)[C@H](Cc1ccccc1)NC(=O)[C@H](CC(N)=O)NC(=O)[C@@H]1CCCN1C(=O)[C@H](CO)NC(=O)[C@H](CO)NC(=O)[C@H](Cc1c[nH]cn1)NC(=O)[C@H](CCCNC(=N)N)NC(=O)[C@H](CC(C)C)NC(=O)[C@H](Cc1ccccc1)NC(=O)[C@H](CCC(=O)O)NC(=O)[C@H](C)NC(=O)[C@H](CC(C)C)NC(=O)[C@H](CCCNC(=N)N)NC(=O)[C@H](CCC(N)=O)NC(=O)[C@@H](NC(=O)[C@H](C)NC(=O)[C@@H]1CSSC[C@H](NC(=O)[C@H](CCCCN)NC(=O)CC[C@H](NC(=O)CCCCCCCCCCCCCCCCCCC(=O)O)C(=O)O)C(=O)N[C@@H](CC(N)=O)C(=O)N[C@@H]([C@@H](C)O)C(=O)N[C@@H](C)C(=O)N[C@@H]([C@@H](C)O)C(=O)N1)[C@@H](C)O)C(=O)N1CCC[C@H]1C(=O)N[C@@H](CO)C(=O)N[C@@H](CO)C(=O)N[C@H](C(=O)N[C@@H](CC(N)=O)C(=O)N[C@H](C(=O)NCC(=O)N[C@@H](CO)C(=O)N[C@@H](CC(=O)O)C(=O)N[C@H](C(=O)N1CCC[C@H]1C(N)=O)[C@@H](C)O)C(C)C)[C@@H](C)O
# notes: also called compound 11
# B5: N^α1-[(4S)-4-carboxy-4-(19-carboxynonadecanoylamino)butanoyl]-[Glu14,Arg17,Pro21,Pro27,His34]-h-amylin (peptide)
# peptide: {C20 diacid-γGlu}-KCNTATCATQRLAEFLRHSSPNFGAIPSSTNVGHNTY-NH2
# modifications: disulfide 2-7
# SMILES: CC[C@H](C)[C@H](NC(=O)[C@H](C)NC(=O)CNC(=O)[C@H](Cc1ccccc1)NC(=O)[C@H](CC(N)=O)NC(=O)[C@@H]1CCCN1C(=O)[C@H](CO)NC(=O)[C@H](CO)NC(=O)[C@H](Cc1c[nH]cn1)NC(=O)[C@H](CCCNC(=N)N)NC(=O)[C@H](CC(C)C)NC(=O)[C@H](Cc1ccccc1)NC(=O)[C@H](CCC(=O)O)NC(=O)[C@H](C)NC(=O)[C@H](CC(C)C)NC(=O)[C@H](CCCNC(=N)N)NC(=O)[C@H](CCC(N)=O)NC(=O)[C@@H](NC(=O)[C@H](C)NC(=O)[C@@H]1CSSC[C@H](NC(=O)[C@H](CCCCN)NC(=O)CC[C@H](NC(=O)CCCCCCCCCCCCCCCCCCC(=O)O)C(=O)O)C(=O)N[C@@H](CC(N)=O)C(=O)N[C@@H]([C@@H](C)O)C(=O)N[C@@H](C)C(=O)N[C@@H]([C@@H](C)O)C(=O)N1)[C@@H](C)O)C(=O)N1CCC[C@H]1C(=O)N[C@@H](CO)C(=O)N[C@@H](CO)C(=O)N[C@H](C(=O)N[C@@H](CC(N)=O)C(=O)N[C@H](C(=O)NCC(=O)N[C@@H](Cc1c[nH]cn1)C(=O)N[C@@H](CC(N)=O)C(=O)N[C@H](C(=O)N[C@@H](Cc1ccc(O)cc1)C(N)=O)[C@@H](C)O)C(C)C)[C@@H](C)O
# notes: also called compound 17
# B6: N^α1-[(4S)-4-carboxy-4-(19-carboxynonadecanoylamino)butanoyl]-[Glu14,Arg17,Pro21,Pro27,His35]-h-amylin (peptide)
# peptide: {C20 diacid-γGlu}-KCNTATCATQRLAEFLRHSSPNFGAIPSSTNVGSHTY-NH2
# modifications: disulfide 2-7
# SMILES: CC[C@H](C)[C@H](NC(=O)[C@H](C)NC(=O)CNC(=O)[C@H](Cc1ccccc1)NC(=O)[C@H](CC(N)=O)NC(=O)[C@@H]1CCCN1C(=O)[C@H](CO)NC(=O)[C@H](CO)NC(=O)[C@H](Cc1c[nH]cn1)NC(=O)[C@H](CCCNC(=N)N)NC(=O)[C@H](CC(C)C)NC(=O)[C@H](Cc1ccccc1)NC(=O)[C@H](CCC(=O)O)NC(=O)[C@H](C)NC(=O)[C@H](CC(C)C)NC(=O)[C@H](CCCNC(=N)N)NC(=O)[C@H](CCC(N)=O)NC(=O)[C@@H](NC(=O)[C@H](C)NC(=O)[C@@H]1CSSC[C@H](NC(=O)[C@H](CCCCN)NC(=O)CC[C@H](NC(=O)CCCCCCCCCCCCCCCCCCC(=O)O)C(=O)O)C(=O)N[C@@H](CC(N)=O)C(=O)N[C@@H]([C@@H](C)O)C(=O)N[C@@H](C)C(=O)N[C@@H]([C@@H](C)O)C(=O)N1)[C@@H](C)O)C(=O)N1CCC[C@H]1C(=O)N[C@@H](CO)C(=O)N[C@@H](CO)C(=O)N[C@H](C(=O)N[C@@H](CC(N)=O)C(=O)N[C@H](C(=O)NCC(=O)N[C@@H](CO)C(=O)N[C@@H](Cc1c[nH]cn1)C(=O)N[C@H](C(=O)N[C@@H](Cc1ccc(O)cc1)C(N)=O)[C@@H](C)O)C(C)C)[C@@H](C)O
# notes: also called compound 18
# Biological target: T1, human amylin receptor (amylin 3(a) …)
# Assay: cell-based or functional assay
row,Binder,hAmylin-R funct. EC50 [nM]
1,B1,0.099
2,B2,0.072
3,B3,0.363
4,B4,0.12
5,B5,0.268
6,B6,0.154

# Biological target: T2, human calcitonin receptor
# Assay: cell-based or functional assay
Binder,Ratio hCT/hAmylin funct.,hCTR funct. EC50 [nM]
B1,8.7,0.857
B2,1,0.07
B3,6.1,2.21
B4,0.9,0.112
B5,8.8,
B6,4.8,0.742

# Reference: US20140087995A1 (published 2014)
